According to the supplement of paper PMC9876800:

Tested on: peptide library, one residue held at a place counted from the S/T acceptor
Assay: relative phosphorylation of the sub-library (ratio to the mean residue at this position); higher = residue favoured
Details: human
In short: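 Human or orthologue kinase constructs, purified and recombinant, were incubated under kinase-specific conditions in 384-well plates with biotinylated degenerate peptide sub-libraries. Each sub-library fixed one residue at one position around a central Ser/Thr. Incubations lasted 90 min with peptides at 50 μM and 50 μM ATP spiked with γ-32P-ATP, after which spots on streptavidin membranes were phosphorimaged and quantified by densitometry. Relative sub-library phosphorylation is a ratio to the mean residue at that position.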

Chain of CDK1, construct: Full length (P06493 whole entry, looked up): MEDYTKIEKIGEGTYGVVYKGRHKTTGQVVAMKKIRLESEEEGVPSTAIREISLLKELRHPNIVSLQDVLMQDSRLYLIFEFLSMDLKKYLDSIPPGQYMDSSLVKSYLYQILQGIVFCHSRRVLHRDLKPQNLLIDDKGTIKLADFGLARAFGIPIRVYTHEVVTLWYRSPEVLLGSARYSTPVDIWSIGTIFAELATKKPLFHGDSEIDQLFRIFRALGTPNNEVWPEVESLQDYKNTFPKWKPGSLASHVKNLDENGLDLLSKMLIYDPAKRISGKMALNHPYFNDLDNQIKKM
Chain of PAK6, construct: aa382-end (Q9NQU5 382-681, looked up): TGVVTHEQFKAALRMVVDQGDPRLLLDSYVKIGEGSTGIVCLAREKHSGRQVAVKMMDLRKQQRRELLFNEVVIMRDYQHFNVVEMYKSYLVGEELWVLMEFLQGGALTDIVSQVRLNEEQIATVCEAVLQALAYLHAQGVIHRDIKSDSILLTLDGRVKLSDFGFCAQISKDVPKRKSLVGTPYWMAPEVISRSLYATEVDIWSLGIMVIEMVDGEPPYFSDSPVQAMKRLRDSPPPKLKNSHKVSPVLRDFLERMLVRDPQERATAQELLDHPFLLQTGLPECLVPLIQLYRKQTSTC
Chain of MAPK1, construct: Full length (P28482 whole entry, looked up): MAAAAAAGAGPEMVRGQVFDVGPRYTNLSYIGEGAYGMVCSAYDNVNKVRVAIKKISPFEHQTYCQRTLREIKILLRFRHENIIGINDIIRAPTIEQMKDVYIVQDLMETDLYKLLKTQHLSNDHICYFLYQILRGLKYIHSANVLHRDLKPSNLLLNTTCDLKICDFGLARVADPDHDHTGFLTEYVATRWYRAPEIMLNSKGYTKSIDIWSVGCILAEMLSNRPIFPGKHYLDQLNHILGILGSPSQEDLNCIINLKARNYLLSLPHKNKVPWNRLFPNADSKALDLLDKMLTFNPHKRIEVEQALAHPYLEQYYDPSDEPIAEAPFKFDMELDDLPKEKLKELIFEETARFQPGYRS

MAPK1, construct: Full length (from UniProt P28482)
relative phosphorylation
Details	at +1	at +2	at +3	at +4	at -1	at -2	at -3	at -4	at -5
A fixed	0.973	0.668	0.858	0.681	0.711	0.878	1	0.906	0.914
D fixed	0.121	0.537	0.684	0.75	0.577	0.465	1.09	1.21	1.23
E fixed	0.0909	0.28	0.721	0.679	0.447	0.486	1.19	1.28	0.955
F fixed	0.427	1.43	1.46	1.18	0.906	0.58	0.839	0.886	1.02
G fixed	0.756	1.02	0.866	0.753	0.711	0.513	1.06	1.02	1.02
H fixed	0.474	1.66	1.37	1.17	1.23	0.622	1.02	1.06	1.21
I fixed	0.235	0.91	1.05	1.15	0.727	1.49	0.814	1.08	0.752
K fixed	0.472	1.6	0.821	1.55	1.59	0.547	0.723	1.01	1.07
L fixed	0.426	1.26	1.15	1	1.43	1.87	0.915	0.817	0.912
M fixed	0.4	1.16	1.13	1.11	1.35	1.35	1.07	0.993	0.812
N fixed	0.216	1.06	0.676	0.933	0.86	0.776	1.11	1.02	1.07
P fixed	10.5	0.399	1.05	0.748	0.916	3.03	1.48	0.895	0.946
Q fixed	0.289	0.785	0.682	0.96	1.25	1.1	1.15	1.09	1.03
R fixed	0.442	1.67	0.931	1.07	1.76	0.901	1.11	1.11	1.18
V fixed	0.256	0.8	0.799	0.853	0.669	1.34	0.79	0.643	0.689
W fixed	0.453	0.885	1.41	1.3	0.828	0.512	0.807	1.04	1.05
Y fixed	0.439	0.869	1.35	1.1	1.04	0.549	0.838	0.945	1.15
pThr fixed	0.432	0.683	0.642	0.847	0.381	1.05	1.2	1.18	1.16
pTyr fixed	0.517	0.404	1.01	0.861	0.351	0.691	1.31	0.918	1.18

PAK6, construct: aa382-end (from UniProt Q9NQU5)
relative phosphorylation
Details	at +1	at +2	at +3	at +4	at -1	at -2	at -3	at -4	at -5
A fixed	0.845	5.4	1.16	1.06	0.921	0.523	0.766	1.19	1.21
D fixed	0.225	0.407	0.707	0.827	0.361	0.117	0.216	0.554	0.759
E fixed	0.233	0.264	1.08	0.69	0.256	0.109	0.18	0.635	0.568
F fixed	1.37	0.835	0.986	0.672	1.12	0.626	0.638	0.778	0.855
G fixed	0.376	0.695	1.18	1.29	0.619	0.31	0.553	1.24	1.19
H fixed	0.97	0.78	1.26	1.02	1.19	1.1	0.753	0.941	0.884
I fixed	1.56	0.752	0.887	0.623	1.14	0.767	1.11	1.33	1.41
K fixed	0.887	0.594	0.818	1.31	1.76	0.97	4.26	1.63	1.59
L fixed	1.63	0.798	1.11	0.609	1.29	0.662	0.802	0.903	1.15
M fixed	1.44	0.706	1.05	0.786	1.09	0.461	0.655	0.943	0.875
N fixed	0.49	0.704	0.72	1.03	0.917	0.276	0.479	0.792	0.873
P fixed	0.313	0.643	1.3	1.96	0.304	0.501	0.561	0.968	0.892
Q fixed	0.693	0.526	0.909	1.15	0.78	0.456	0.674	0.81	0.784
R fixed	1.07	0.67	0.974	1.57	2.53	8.47	3.53	1.58	1.53
V fixed	1.61	1	0.897	0.753	0.627	0.5	0.742	1.19	1.02
W fixed	1.86	0.891	0.905	0.853	0.9	0.409	0.56	0.762	0.691
Y fixed	1.42	1.33	1.07	0.807	1.2	0.737	0.525	0.755	0.731
pThr fixed	0.461	0.494	0.647	0.905	0.272	0.192	0.315	0.558	0.665
pTyr fixed	0.684	0.465	0.993	0.687	0.358	0.219	0.379	0.61	0.496

MAP3K20, construct: Full length (from UniProt Q9NYL2)
relative phosphorylation
Details	at +1	at +2	at +3	at +4	at -1	at -2	at -3	at -4	at -5
A fixed	0.455	0.721	0.832	0.953	0.78	0.903	1.01	0.913	1.12
D fixed	0.247	0.439	0.477	0.582	1.46	1.01	0.926	1.29	1
E fixed	0.359	0.359	0.543	0.629	0.797	0.946	1.13	1.14	0.884
F fixed	1.58	0.694	1.11	0.722	0.853	1.03	0.835	0.894	0.925
G fixed	0.282	0.564	0.99	1.06	1.22	1.45	1.18	1.16	1.09
H fixed	1.07	2.45	1.13	1.14	1.79	1.61	1.2	1.13	1.1
I fixed	2.51	0.692	1.08	0.729	0.394	0.631	0.772	0.72	0.733
K fixed	0.486	1.57	1.45	2.05	1.01	0.509	0.819	1.08	1.39
L fixed	1.3	0.646	1.07	0.672	0.679	0.858	0.952	0.736	0.812
M fixed	0.981	0.758	0.972	0.818	1.13	0.812	0.915	0.849	0.822
N fixed	0.473	0.996	0.822	0.946	1.63	1.12	1.28	1.19	1.11
P fixed	0.261	0.41	0.771	1.16	0.632	0.693	1.23	1.07	1.03
Q fixed	0.629	0.894	0.896	1.04	1.08	0.977	0.892	0.932	0.914
R fixed	0.557	2.15	1.42	1.72	1.12	0.662	1.01	1.11	1.14
V fixed	2.5	0.779	0.984	0.69	0.461	0.647	0.841	0.76	0.772
W fixed	1.27	1.08	1.25	1.19	0.778	2.07	1.11	1.07	1.14
Y fixed	2.03	1.8	1.21	0.895	1.18	1.07	0.909	0.959	1.01
pThr fixed	0.837	0.564	0.781	0.663	0.615	1.09	1.34	1.2	1.22
pTyr fixed	0.662	0.528	0.72	0.694	0.997	0.935	1.06	0.797	1.04

CDK1, construct: Full length (from UniProt P06493)
relative phosphorylation
Details	at +1	at +2	at +3	at +4	at -1	at -2	at -3	at -4	at -5
A fixed	0.334	1.04	0.598	0.854	0.927	1	0.841	0.996	1.04
D fixed	0.205	0.814	0.505	0.941	1.21	1.03	1.26	1.56	1.55
E fixed	0.231	0.724	0.425	0.786	0.927	0.898	1.25	1.38	1.36
F fixed	0.187	0.68	0.396	0.78	0.639	0.853	0.825	0.825	0.882
G fixed	0.717	1.13	0.852	1.1	1.43	1.29	1.31	1.14	1.4
H fixed	0.244	1.18	0.907	1.23	0.744	0.87	1.01	0.908	0.893
I fixed	0.21	0.694	0.346	0.758	0.352	0.669	0.663	0.654	0.751
K fixed	0.331	1.86	5.37	1.83	1.65	0.597	1.01	0.973	1.11
L fixed	0.228	0.752	0.403	0.792	0.62	0.89	0.743	0.69	0.799
M fixed	0.24	0.839	0.423	0.913	0.85	1.04	0.761	0.806	0.759
N fixed	0.299	1.19	0.838	1.12	1.27	0.803	1.11	1.01	0.944
P fixed	12.4	1.04	0.999	1.08	1.61	3.11	1.84	1.49	1.16
Q fixed	0.292	1.16	0.798	1.02	1.22	0.856	0.976	0.922	0.86
R fixed	0.324	1.64	2.82	1.21	1.4	0.649	0.921	1.02	0.934
V fixed	0.295	0.656	0.413	0.695	0.483	0.687	0.705	0.586	0.718
W fixed	0.213	0.769	0.485	0.973	0.758	0.935	0.883	1.05	0.852
Y fixed	0.202	0.842	0.415	0.924	0.897	0.825	0.893	0.985	0.99
pThr fixed	0.851	1.38	1.59	0.946	0.621	1.16	1.3	1.43	1.74
pTyr fixed	0.777	0.913	1.36	1.08	0.885	1.28	1.48	1.42	1.66
